Results on 1 molecule are retold here after paper PMC8623585 (Vaccines, 2021).

For experiment [1], the target named is T1, Human IL-6 receptor (Homo sapiens, UniProt P08887).
T1 construct: interleukin 6 receptor (IL-6R), human; also called interleukin 6 receptor; source: bought: Sino Biological
Put plainly: ELISA; human IL-6R (2 µg/mL) immobilised on microtiter plates; serial dilutions of pIL6RmAb; detected with HRP-conjugated anti-human-gamma HC antibody; KD by non-linear regression, one-site binding model. Particulars: both partners purified. For orientation: ELISA stands for enzyme-linked immunosorbent assay.

The target in experiment [2] is T1, Human IL-6 receptor. The experiment is described as follows: cell-based or functional assay.

For orientation: Kd means a measure of binding affinity in units of concentration. A higher Kd goes with lower affinity.

T1 sequence (P08887 20-365): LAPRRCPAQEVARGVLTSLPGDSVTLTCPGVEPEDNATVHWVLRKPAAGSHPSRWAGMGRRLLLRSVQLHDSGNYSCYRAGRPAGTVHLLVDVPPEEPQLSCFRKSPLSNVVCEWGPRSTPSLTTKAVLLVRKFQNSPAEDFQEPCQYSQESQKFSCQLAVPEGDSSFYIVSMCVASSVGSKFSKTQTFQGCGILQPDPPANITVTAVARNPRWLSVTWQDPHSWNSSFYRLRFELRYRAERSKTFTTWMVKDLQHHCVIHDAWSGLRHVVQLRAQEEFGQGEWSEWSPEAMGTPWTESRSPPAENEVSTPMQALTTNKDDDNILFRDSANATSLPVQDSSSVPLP

B1: Plant-produced IL6RmAb (anti-IL-6 receptor monoclonal antibody with the amino acid sequence of sarilumab) (antibody, V domains shown)
VH: EVQLVESGGGLVQPGRSLRLSCAASRFTFDDYAMHWVRQAPGKGLEWVSGISWNSGRIGYADSVKGRFTISRDNAENSLFLQMNGLRAEDTALYYCAKGRDSFDIWGQGTMVTVSS
VL: DIQMTQSPSSVSASVGDRVTITCRASQGISSWLAWYQQKPGKAPKLLIYGASSLESGVPSRFSGSGSGTDFTLTISSLQPEDFASYYCQQANSFPYTFGQGTKLEIK
notes: heavy chain of sarilumab; light chain of sarilumab; Full IgG1 with kappa light chain, heterotetramer of ~150 kDa; made in a glycoengineered N. benthamiana line; also called pIL6RmAb; anti-IL6R mAb; copies: 2 + 2
In the experiment with Human IL-6 receptor [1], B1 had a Kd of 0.083 nM. In the experiment with Human IL-6 receptor [2], the “IC50 of inhibition of IL-6 signaling in luciferase reporter cells (Promega IL-6 Bioassay) with 25 ng/mL (~1.19 nM) recombinant human IL-6; blocks IL-6 with IL-6R” value was 0.081 µg/mL and the “IC50 of inhibition of IL-6 signaling in luciferase reporter cells (Promega IL-6 Bioassay) with 25 ng/mL (~1.19 nM) recombinant human IL-6; blocks IL-6 with IL-6R (the same IC50 in molar units)” value was around 0.54 nM.
